Measurements published in publication PMC314469, “Protein Interaction Networks by Proteome Peptide Scanning” (PLoS Biology, 2004).

T1: Yfr024 SH3 (LSB3_YEAST), P43603
T1 chain: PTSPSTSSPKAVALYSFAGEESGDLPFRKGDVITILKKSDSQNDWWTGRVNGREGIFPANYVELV

T2: Boi1 SH3 (BOI1_YEAST), P38041
T2 chain: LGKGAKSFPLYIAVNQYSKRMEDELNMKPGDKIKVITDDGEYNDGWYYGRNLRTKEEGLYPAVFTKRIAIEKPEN

T3: Boi2 SH3 (BOI2_YEAST), P39969
T3 chain: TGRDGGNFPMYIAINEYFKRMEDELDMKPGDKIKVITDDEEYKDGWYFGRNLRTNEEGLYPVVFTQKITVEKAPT

T4: Rvs167 SH3 (RV167_YEAST), P39743
T4 chain: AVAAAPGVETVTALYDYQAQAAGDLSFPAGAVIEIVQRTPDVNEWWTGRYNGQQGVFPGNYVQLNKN

T5: Yhr016c SH3 (YSC84_YEAST), P32793
T5 chain: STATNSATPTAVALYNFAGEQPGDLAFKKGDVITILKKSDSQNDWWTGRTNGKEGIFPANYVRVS


What was measured:
Experiment in all cases: SPOT array
[1] = target: T1, Yfr024 SH3 (LSB3_YEAST), P43603
[2] = target: T2, Boi1 SH3 (BOI1_YEAST), P38041
[3] = target: T3, Boi2 SH3 (BOI2_YEAST), P39969
[4] = target: T4, Rvs167 SH3 (RV167_YEAST), P39743
[5] = target: T5, Yhr016c SH3 (YSC84_YEAST), P32793

Row | Binder | normalised SPOT signal, Boehringer light units (BLU); mean over the file's lines of this peptide [1] | normalised SPOT signal, Boehringer light units (BLU); mean over the file's lines of this peptide [2] | normalised SPOT signal, Boehringer light units (BLU); mean over the file's lines of this peptide [3] | normalised SPOT signal, Boehringer light units (BLU); mean over the file's lines of this peptide [4] | normalised SPOT signal, Boehringer light units (BLU); mean over the file's lines of this peptide [5]
1 | QLFPVRPVRVRHED [YDL150W 198-211] | 28800 | 34100 | 5900 | 11400 | 13600
2 | QKTPPSPAKPKQKT [YBR102C 26-39] | 365 | 331 | 43.4 | 156 | 176
3 | QLLPNNPDKNNNGT [YKL159C 151-164] | 49.9 | 149 | 52.3 | 0 | 130
4 | QLEPLAPYKFFDII [YLR430W 1690-1703] | 70.2 | 85.7 | 23.8 | 62.7 | 334
5 | QLTPLLPDKYFDSA [YBL066C 693-706] | 516 | 50.1 | 19.8 | 106 | 207
6 | QNTPPLPPKPKSPH [YCL008C 175-188] | 38500 | 102 | 46 | 1050 | 18200
7 | QLLPNVPDKVLVPG [YDL220C 391-404] | 69 | 87.7 | 49.5 | 67.5 | 92.2
8 | QRHPKSPVKKPMTS [YCL014W 878-891] | 676 | 123 | 90.5 | 192 | 169
9 | QPAPRIPSKDAIIS [YAL051W 100-113] | 1610 | 58.1 | 23.6 | 169 | 95.9

The next lines start with the values.

Row | normalised SPOT signal, Boehringer light units (BLU); mean over the file's lines of this peptide [1] | normalised SPOT signal, Boehringer light units (BLU); mean over the file's lines of this peptide [2] | normalised SPOT signal, Boehringer light units (BLU); mean over the file's lines of this peptide [3] | normalised SPOT signal, Boehringer light units (BLU); mean over the file's lines of this peptide [4] | normalised SPOT signal, Boehringer light units (BLU); mean over the file's lines of this peptide [5] | Binder
10 | 257 | 143 | 27.2 | 45.9 | 122 | QQLPLEPLKPTATG [YOR329C 404-417]
11 | 164 | 53.8 | 94.3 | 32.1 | 249 | QPLPTSPSKRFSSL [YOR372C 249-262]
12 | 866 | 679 | 118 | 25.7 | 182 | QMNPKNPIRLGMAN [YOR227W 657-670]
13 | 116 | 14.1 | -0 | 23.6 | 148 | QNNPPKPQKPVPLN [YOR290C 415-428]
14 | 266 | 174 | 21.7 | 49.2 | 169 | QPKPGNPLRNARLN [YMR191W 37-50]
15 | 4420 | 2880 | 1420 | 1140 | 1440 | QMRPYTPLRSPNSR [YOR093C 49-62]
16 | 3880 | 170 | 71.9 | 42.5 | 101 | QQKPAIPQKKSFLT [YPR171W 424-437]
17 | 61.7 | 103 | 14 | 2.1 | 118 | QRLPGEPGREQAPN [YOR322C 391-404]
